# Experimental data: patent US11708423B2, “Chimeric engulfment receptor molecules and methods of use” (CERO THERAPEUTICS, INC., priority 2017, dated 2023)
# B1: CER27: Tim4 binding and transmembrane domains, TLR2 signaling domain; SEQ ID NO:93 (protein)
# chain: MSKGLLLLWLVTELWWLYLTPAASEDTIIGFLGQPVTLPCHYLSWSQSRNSMCWGKGSCPNSKCNAELLRTDGTRIISRKSTKYTLLGKVQFGEVSLTISNTNRGDSGVYCCRIEVPGWFNDVKKNVRLELRRATTTKKPTTTTRPTTTPYVTTTTPELLPTTVMTTSVLPTTTPPQTLATTAFSTAVTTCPSTTPGSFSQETTKGSAFTTESETLPASNHSQRSMMTISTDIAVLRPTGSNPGILPSTSQLTTQKTTLTTSESLQKTTKSHQINSRQTILIIACCVGFVLMVLLFLAFLHRFHGLWYMKMMWAWLQAKRKPRKAPSRNICYDAFVSYSERDAYWVENLMVQELENFNPPFKLCLHKRDFIPGKWIIDNIIDSIEKSHKTVFVLSENFVKSEWCKYELDFSHFRLFDENNDAAILILLEPIEKKAIPQRFCKLRKIMNTKTYLEWPMDEAQREGFWVNLRAAIKS
# modifications: CER27 chimeric engulfment receptor
# B2: CER30: Tim4 binding and transmembrane domains, Traf2 signaling domain; SEQ ID NO:96 (protein)
# chain: MSKGLLLLWLVTELWWLYLTPAASEDTIIGFLGQPVTLPCHYLSWSQSRNSMCWGKGSCPNSKCNAELLRTDGTRIISRKSTKYTLLGKVQFGEVSLTISNTNRGDSGVYCCRIEVPGWFNDVKKNVRLELRRATTTKKPTTTTRPTTTPYVTTTTPELLPTTVMTTSVLPTTTPPQTLATTAFSTAVTTCPSTTPGSFSQETTKGSAFTTESETLPASNHSQRSMMTISTDIAVLRPTGSNPGILPSTSQLTTQKTTLTTSESLQKTTKSHQINSRQTILIIACCVGFVLMVLLFLAFLMAAASVTPPGSLELLQPGFSKTLLGTKLEAKYLCSACRNVLRRPFQAQCGHRYCSFCLASILSSGPQNCAACVHEGIYEEGISILESSSAFPDNAARREVESLPAVCPSDGCTWKGTLKEYESCHEGRCPLMLTECPACKGLVRLGEKERHLEHECPERSLSCRHCRAPCCGADVKAHHEVCPKFPLTCDGCGKKKIPREKFQDHVKTCGKCRVPCRFHAIGCLETVEGEKQQEHEVQWLREHLAMLLSSVLEAKPLLGDQSHAGSELLQRCESLEKKTATFENIVCVLNREVERVAMTAEAC
# modifications: CER30 chimeric engulfment receptor
# B3: CER129: Tim4 binding and transmembrane domains, TLR8 primary and TRAF2 secondary signaling domains; SEQ ID NO:177 (protein)
# chain: MSKGLLLLWLVTELWWLYLTPAASEDTIIGFLGQPVTLPCHYLSWSQSRNSMCWGKGSCPNSKCNAELLRTDGTRIISRKSTKYTLLGKVQFGEVSLTISNTNRGDSGVYCCRIEVPGWFNDVKKNVRLELRRATTTKKPTTTTRPTTTPYVTTTTPELLPTTVMTTSVLPTTTPPQTLATTAFSTAVTTCPSTTPGSFSQETTKGSAFTTESETLPASNHSQRSMMTISTDIAVLRPTGSNPGILPSTSQLTTQKTTLTTSESLQKTTKSHQINSRQTILIIACCVGFVLMVLLFLAFLHHLFYWDVWFIYNVCLAKVKGYRSLSTSQTFYDAYISYDTKDASVTDWVINELRYHLEESRDKNVLLCLEERDWDPGLAIIDNLMQSINQSKKTVFVLTKKYAKSWNFKTAFYLALQRLMDENMDVIIFILLEPVLQHSQYLRLRQRICKSSILQWPDNPKAEGLFWQTLRNVVLTENDSRYNNMYVDSIKQYMAAASVTPPGSLELLQPGFSKTLLGTKLEAKYLCSACRNVLRRPFQAQCGHRYCSFCLASILSSGPQNCAACVHEGIYEEGISILESSSAFPDNAARREVESLPAVCPSDGCTWKGTLKEYESCHEGRCPLMLTECPACKGLVRLGEKERHLEHECPERSLSCRHCRAPCCGADVKAHHEVCPKFPLTCDGCGKKKIPREKFQDHVKTCGKCRVPCRFHAIGCLETVEGEKQQEHEVQWLREHLAMLLSSVLEAKPLLGDQSHAGSELLQRCESLEKKTATFENIVCVLNREVERVAMTAEAC
# modifications: CER129 protein
# B4: CER127: Tim4 binding and transmembrane domains, TRAF2 primary and TLR2 secondary signaling domains; SEQ ID NO:175 (protein)
# chain: MSKGLLLLWLVTELWWLYLTPAASEDTIIGFLGQPVTLPCHYLSWSQSRNSMCWGKGSCPNSKCNAELLRTDGTRIISRKSTKYTLLGKVQFGEVSLTISNTNRGDSGVYCCRIEVPGWFNDVKKNVRLELRRATTTKKPTTTTRPTTTPYVTTTTPELLPTTVMTTSVLPTTTPPQTLATTAFSTAVTTCPSTTPGSFSQETTKGSAFTTESETLPASNHSQRSMMTISTDIAVLRPTGSNPGILPSTSQLTTQKTTLTTSESLQKTTKSHQINSRQTILIIACCVGFVLMVLLFLAFLMAAASVTPPGSLELLQPGFSKTLLGTKLEAKYLCSACRNVLRRPFQAQCGHRYCSFCLASILSSGPQNCAACVHEGIYEEGISILESSSAFPDNAARREVESLPAVCPSDGCTWKGTLKEYESCHEGRCPLMLTECPACKGLVRLGEKERHLEHECPERSLSCRHCRAPCCGADVKAHHEVCPKFPLTCDGCGKKKIPREKFQDHVKTCGKCRVPCRFHAIGCLETVEGEKQQEHEVQWLREHLAMLLSSVLEAKPLLGDQSHAGSELLQRCESLEKKTATFENIVCVLNREVERVAMTAEACHRFHGLWYMKMMWAWLQAKRKPRKAPSRNICYDAFVSYSERDAYWVENLMVQELENFNPPFKLCLHKRDFIPGKWIIDNIIDSIEKSHKTVFVLSENFVKSEWCKYELDFSHFRLFDENNDAAILILLEPIEKKAIPQRFCKLRKIMNTKTYLEWPMDEAQREGFWVNLRAAIKS
# modifications: CER127 protein
# B5: CER108: Tim4 binding and transmembrane domains, DAP12 primary and TLR8 secondary signaling domains; SEQ ID NO:137 (protein)
# chain: MSKGLLLLWLVTELWWLYLTPAASEDTIIGFLGQPVTLPCHYLSWSQSRNSMCWGKGSCPNSKCNAELLRTDGTRIISRKSTKYTLLGKVQFGEVSLTISNTNRGDSGVYCCRIEVPGWFNDVKKNVRLELRRATTTKKPTTTTRPTTTPYVTTTTPELLPTTVMTTSVLPTTTPPQTLATTAFSTAVTTCPSTTPGSFSQETTKGSAFTTESETLPASNHSQRSMMTISTDIAVLRPTGSNPGILPSTSQLTTQKTTLTTSESLQKTTKSHQINSRQTILIIACCVGFVLMVLLFLAFLYFLGRLVPRGRGAAEAATRKQRITETESPYQELQGQRSDVYSDLNTQRPYYKHHLFYWDVWFIYNVCLAKVKGYRSLSTSQTFYDAYISYDTKDASVTDWVINELRYHLEESRDKNVLLCLEERDWDPGLAIIDNLMQSINQSKKTVFVLTKKYAKSWNFKTAFYLALQRLMDENMDVIIFILLEPVLQHSQYLRLRQRICKSSILQWPDNPKAEGLFWQTLRNVVLTENDSRYNNMYVDSIKQY
# modifications: CER108 protein
# B6: CER124: Tim4 binding and transmembrane domains, TLR2 primary and NFAM1 secondary signaling domains; SEQ ID NO:151 (protein)
# chain: MSKGLLLLWLVTELWWLYLTPAASEDTIIGFLGQPVTLPCHYLSWSQSRNSMCWGKGSCPNSKCNAELLRTDGTRIISRKSTKYTLLGKVQFGEVSLTISNTNRGDSGVYCCRIEVPGWFNDVKKNVRLELRRATTTKKPTTTTRPTTTPYVTTTTPELLPTTVMTTSVLPTTTPPQTLATTAFSTAVTTCPSTTPGSFSQETTKGSAFTTESETLPASNHSQRSMMTISTDIAVLRPTGSNPGILPSTSQLTTQKTTLTTSESLQKTTKSHQINSRQTILIIACCVGFVLMVLLFLAFLHRFHGLWYMKMMWAWLQAKRKPRKAPSRNICYDAFVSYSERDAYWVENLMVQELENFNPPFKLCLHKRDFIPGKWIIDNIIDSIEKSHKTVFVLSENFVKSEWCKYELDFSHFRLFDENNDAAILILLEPIEKKAIPQRFCKLRKIMNTKTYLEWPMDEAQREGFWVNLRAAIKSLWNKKRMRGPGKDPTRKCPDPRSASSPKQHPSESVYTALQRRETEVYACIENEDGSSPTAKQSPLSQERPHRFEDDGELNLVYENL
# modifications: CER124 protein
# Test system: H1975 lung adenocarcinoma cells
# Experiment: LDH assay, H1975 cells, 48 hours co-culture with 1 μM Osimeritinib
# Type: cell-based
# Details: E:T 1:1, 48 hours, CD4+ T cells
# Description: CER30 comprises a Tim4 binding domain, Tim4 transmembrane domain, and an engulfment signaling domain comprising a primary engulfment signaling domain comprising a TRAF2 signaling domain. CER30 has a polypeptide sequence as set forth in SEQ ID NO:96. CER110 has a polypeptide sequence of SEQ ID NO:125 and comprises a Tim4 binding domain, Tim4 transmembrane domain, and an engulfment signaling domain comprising a primary engulfment signaling domain comprising a TRAF6 signaling domain and a secondary engulfment signaling domain comprising a DAP12 signaling domain. CER112 has a polypeptide sequence of SEQ ID NO:128 and comprises a Tim4 binding domain, Tim4 transmembrane domain, and an engulfment signaling domain comprising a primary engulfment signaling domain comprising a TRAF6 signaling domain and a secondary engulfment signaling domain comprising a NFAM1 signaling domain. CER127 has a polypeptide sequence of SEQ ID NO:175 and comprises a Tim4 binding domain, Tim4 transmembrane domain, and an engulfment signaling domain comprising a primary engulfment signaling domain comprising a TRAF2 signaling domain and a secondary engulfment signaling domain comprising a TLR2 signaling domain. H1975 cells are more resistant to EGFR inhibitors, so Osimeritinib was used at slightly higher concentration. H1975 lung adenocarcinoma cells harboring an EGFR mutation were co-cultured with CER-expressing or mock-transduced (vector only) CD4+ T cells with 1 μM of Osimeritinib. After 48 hours of co-culture at a 1:1 effector:target cell ratio, T cells were washed away, and the number of viable H1975 cells was quantified using a calorimetric LDH assay (FIG. 57). Cell viability experiments were performed in triplicate and presented as % of control.
row,Molecule,killing of H1975 cells (LDH)
1,B1,synergistic killing of H1975 lung adenocarcinoma cells upon EGFR inhibition
2,B2,synergistic killing of H1975 lung adenocarcinoma cells upon EGFR inhibition
3,B3,synergistic killing of H1975 lung adenocarcinoma cells upon EGFR inhibition
4,B4,synergistic killing of H1975 lung adenocarcinoma cells upon EGFR inhibition
5,B5,synergistic killing of H1975 lung adenocarcinoma cells upon EGFR inhibition
6,B6,synergistic killing of H1975 lung adenocarcinoma cells upon EGFR inhibition
